We go through three molecules from PMC10397247.

In one experiment the target is T1, 4H2512-AA.
T1 chain: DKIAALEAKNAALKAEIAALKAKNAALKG
The experiment is described as follows: two-hybrid library CCmax.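 Note: natural log of median RNA to DNA barcode read ratio; higher means stronger binding.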 As to conditions: mean of both orientations.

The target of a further experiment is T2, 4H233-AA.
T2 chain: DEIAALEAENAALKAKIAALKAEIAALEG
The experiment in a line: two-hybrid library CCmax.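 Note: natural log of median RNA to DNA barcode read ratio; higher means stronger binding.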 The conditions noted are these: mean of both orientations.

A further experiment concerns the target T3, 4H775-AA.
T3 chain: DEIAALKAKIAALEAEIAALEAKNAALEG
The experiment in a line: two-hybrid library CCmax.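 Note: natural log of median RNA to DNA barcode read ratio; higher means stronger binding.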 The conditions noted are these: mean of both orientations.

For a further experiment, the target named is T4, 4H3134-AA.
T4 chain: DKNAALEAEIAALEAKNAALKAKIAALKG
The experiment is described as follows: two-hybrid library CCmax.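 Note: natural log of median RNA to DNA barcode read ratio; higher means stronger binding.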 As to conditions: mean of both orientations.

For a further experiment, the target named is T5, 4H2187-AA.
T5 chain: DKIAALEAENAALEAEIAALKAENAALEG
The experiment in a line: two-hybrid library CCmax.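 Note: natural log of median RNA to DNA barcode read ratio; higher means stronger binding.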 The conditions noted are these: mean of both orientations.

In another experiment the target is T6, 4H3625-AA.
T6 chain: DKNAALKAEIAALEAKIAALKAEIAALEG
The experiment is described as follows: two-hybrid library CCmax.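 Note: natural log of median RNA to DNA barcode read ratio; higher means stronger binding.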 The conditions noted are these: mean of both orientations.

Another experiment has as its target T7, 4H2985-AA.
T7 chain: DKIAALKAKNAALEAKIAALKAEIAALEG
The experiment in a line: two-hybrid library CCmax. As to conditions: mean of both orientations.

Another experiment has as its target T8, 4H390-AA.
T8 chain: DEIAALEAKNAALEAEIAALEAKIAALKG
The experiment in a line: two-hybrid library CCmax. As to conditions: mean of both orientations.

For a further experiment, the target named is T9, 4H3409-AA.
T9 chain: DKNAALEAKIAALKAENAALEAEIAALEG
The experiment is described as follows: two-hybrid library CCmax. As to conditions: mean of both orientations.

The next experiment has as its target T10, 4H2687-AA.
T10 chain: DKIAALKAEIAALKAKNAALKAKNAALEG
The experiment is described as follows: two-hybrid library CCmax. The conditions noted are these: mean of both orientations.

Another experiment addresses T11, 4H816-AA.
T11 chain: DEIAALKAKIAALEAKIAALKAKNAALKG
The experiment in a line: two-hybrid library CCmax. The conditions noted are these: mean of both orientations.

The target of another experiment is T12, 4H2705-AA.
T12 chain: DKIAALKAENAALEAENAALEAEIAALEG
The experiment in a line: two-hybrid library CCmax. As to conditions: mean of both orientations.

Another experiment concerns the target T13, 4H2873-AA.
T13 chain: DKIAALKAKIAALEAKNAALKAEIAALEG
The experiment in a line: two-hybrid library CCmax. The conditions noted are these: mean of both orientations.

For a further experiment, the target named is T14, 4H87-AA.
T14 chain: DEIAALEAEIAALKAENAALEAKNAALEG
The experiment in a line: two-hybrid library CCmax.

The target in a further experiment is T15, 4H2646-AA.
T15 chain: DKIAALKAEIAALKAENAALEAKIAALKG
The experiment is described as follows: two-hybrid library CCmax. As to conditions: mean of both orientations.

The target of the next experiment is T16, 4H2758-AA.
T16 chain: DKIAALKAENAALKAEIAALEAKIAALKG
The experiment is described as follows: two-hybrid library CCmax. As to conditions: mean of both orientations.

For another experiment, the target named is T17, 4H278-AA.
T17 chain: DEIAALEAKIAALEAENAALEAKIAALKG
The experiment in a line: two-hybrid library CCmax. The conditions noted are these: mean of both orientations.

The target in another experiment is T18, 4H1985-AA.
T18 chain: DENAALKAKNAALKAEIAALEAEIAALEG
The experiment is described as follows: two-hybrid library CCmax.

A further experiment deals with T19, 4H510-AA.
T19 chain: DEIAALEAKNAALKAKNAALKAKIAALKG
The experiment in a line: two-hybrid library CCmax. As to conditions: mean of both orientations.

A further experiment has as its target T20, 4H3940-AA.
T20 chain: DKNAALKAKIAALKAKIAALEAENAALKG
The experiment is described as follows: two-hybrid library CCmax. The conditions noted are these: mean of both orientations.

The target of another experiment is T21, 4H470-bN.
T21 chain: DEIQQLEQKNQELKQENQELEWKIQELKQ
The experiment is described as follows: two-hybrid library CCNG1.

In another experiment the target is T22, 4H363-bN.
T22 chain: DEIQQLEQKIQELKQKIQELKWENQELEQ
The experiment in a line: two-hybrid library CCNG1.

The target of the next experiment is T23, 4H3907-bN.
T23 chain: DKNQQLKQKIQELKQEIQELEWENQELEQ
The experiment is described as follows: two-hybrid library CCNG1.

A further experiment concerns the target T24, 4H850-bA.
T24 chain: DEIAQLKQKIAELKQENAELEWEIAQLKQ
The experiment is described as follows: two-hybrid library CCNG1.

The target of a further experiment is T25, 4H3961-bN.
T25 chain: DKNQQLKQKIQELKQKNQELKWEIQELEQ
The experiment in a line: two-hybrid library CCNG1.

The next experiment deals with T26, 4H344-bN.
T26 chain: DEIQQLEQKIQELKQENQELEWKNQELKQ
The experiment in a line: two-hybrid library CCNG1.

For a further experiment, the target named is T27, 4H2745-bN.
T27 chain: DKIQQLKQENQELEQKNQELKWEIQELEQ
The experiment in a line: two-hybrid library CCNG1.

For the next experiment, the target named is T28, 4H3632-bN.
T28 chain: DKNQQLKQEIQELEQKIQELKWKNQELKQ
The experiment is described as follows: two-hybrid library CCNG1.

For the next experiment, the target named is T29, 4H496-bN.
T29 chain: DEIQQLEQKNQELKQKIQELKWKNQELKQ
The experiment in a line: two-hybrid library CCNG1.

For another experiment, the target named is T30, 4H342-bN.
T30 chain: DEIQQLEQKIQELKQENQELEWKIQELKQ
The experiment is described as follows: two-hybrid library CCNG1.

The next experiment deals with T31, 4H3070-bN.
T31 chain: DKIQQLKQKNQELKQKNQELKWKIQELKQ
The experiment in a line: two-hybrid library CCNG1. The conditions noted are these: mean of both orientations.

B1: 4H1985-AA (peptide)
chain: DENAALKAKNAALKAEIAALEAEIAALEG
For the molecule B1, the interaction score is -1.41 with 4H2512-AA; 0.704 with 4H233-AA; -1.28 in the experiment with 4H775-AA; -0.682 with 4H3134-AA; -2.04 with 4H2187-AA; -0.122 in the experiment with 4H3625-AA. Also, the interaction score was -0.418 with 4H2985-AA; 1.06 in the experiment with 4H390-AA; -1.05 in the experiment with 4H3409-AA; -1.92 with 4H2687-AA; -0.103 in the experiment with 4H816-AA; -1.05 in the experiment with 4H2705-AA. Besides, the interaction score with 4H2873-AA is -1.18; with 4H87-AA, -1.37; with 4H2646-AA, 0.352; with 4H2758-AA, 0.628; in the experiment with 4H278-AA, -1.45; with 4H1985-AA, -1.91. Besides, the interaction score is -0.896 in the experiment with 4H510-AA and -0.542 with 4H3940-AA.

B2: 4H2745-bN (peptide)
chain: DKIQQLKQENQELEQKNQELKWEIQELEQ
Consider B2, for which the interaction score with 4H470-bN is 1.07; in the experiment with 4H363-bN, -0.693; in the experiment with 4H3907-bN it was -1.56; with 4H850-bA, -0.544; with 4H3961-bN, -0.46; in the experiment with 4H344-bN it was -0.786. The same molecule displayed an interaction score in the experiment with 4H2745-bN of -0.754.

B3: 4H3070-bN (peptide)
chain: DKIQQLKQKNQELKQKNQELKWKIQELKQ
In the case of B3, the interaction score in the experiment with 4H3632-bN was -1.38; with 4H496-bN, -1.31; with 4H342-bN it was 0.751; with 4H3070-bN it was -1.41.
